First the molecules themselves.
B1: PrgK (natural protein)
chain: CKDKDLLKGLDQEQANEVIAVLQMHNIEANKIDSGKLGYSITVAEPDFTAAVYWIKTYQLPPRPRVEIAQMFPADSLVSSPRAEKARLYSAIEQRLEQSLQTMEGVLSARVHISYDIDAGENGRPPKPVHLSALAVYERGSPLAHQISDIKRFLKNSFADVDYDNISVVLSERSDAQLQAPGTPVKRNSFATSWIVLIILLSVMSAGFGVWYYKNHYARNKKGITADDKAKSSNE
modifications: lipoprotein; lipidated N-terminal cysteine (Cys-18)
notes: PrgK, lipoprotein of the SPI-1 needle complex base, S. typhimurium; predicted transmembrane domain 207-227; printed residue numbers include the signal peptide; Stood in the assays as a subunit of the purified needle complex or its substructures; source: endogenous, S. typhimurium strains SB905 (w.t.), SB1171 (ΔinvG) and SB906 complemented with plasmid-borne PrgH; purified within needle complexes
B2: PrgH mutant lacking its last 4 amino acids (PrgH^Δ4) (domain or fragment)
chain: METSKEKTITSPGPYIVRLLNSSLNGCEFPLLTGRTLFVVGQSDALTASGQLPDIPADSFFIPLDHGGVNFEIQVDTDATEIILHELKEGNSESRSVQLNTPIQVGELLILIRPESEPWVPEQPEKLETSAKKNEPRFKNGIVAALAGFFILGIGTVGTLWILNSPQRQAAELDSLLGQEKERFQVLPGRDKMLYVAAQNERDTLWARQVLARGDYDKNARVINENEENKRISIWLDTYYPQLAYYRIHFDEPRKPVFWLSRQRNTMSKKELEVLSQKLRALMPYADSVNITLMDDVTAAGQAEAGLKQQALPYSRRNHKGGVTFVIQGALDDVEILRARQFVDSYYRTWGGRYVQFAIELKDDWLKGRSFQYGAEGYIKMSPGHWYF
notes: PrgH of S. typhimurium without its last 4 amino acids; also called C-terminal truncated PrgH; source: S. typhimurium SB906 (chromosomal ΔprgH) complemented with a pWSK29 plasmid, natural promoter; purified within needle complexes; copies: 24
B3: PrgH (natural protein)
chain: METSKEKTITSPGPYIVRLLNSSLNGCEFPLLTGRTLFVVGQSDALTASGQLPDIPADSFFIPLDHGGVNFEIQVDTDATEIILHELKEGNSESRSVQLNTPIQVGELLILIRPESEPWVPEQPEKLETSAKKNEPRFKNGIVAALAGFFILGIGTVGTLWILNSPQRQAAELDSLLGQEKERFQVLPGRDKMLYVAAQNERDTLWARQVLARGDYDKNARVINENEENKRISIWLDTYYPQLAYYRIHFDEPRKPVFWLSRQRNTMSKKELEVLSQKLRALMPYADSVNITLMDDVTAAGQAEAGLKQQALPYSRRNHKGGVTFVIQGALDDVEILRARQFVDSYYRTWGGRYVQFAIELKDDWLKGRSFQYGAEGYIKMSPGHWYFPSPL
notes: PrgH, inner ring protein of the SPI-1 type III secretion needle complex, S. typhimurium; wild-type chromosomal allele; the N-terminal amino group of Met-1 (peptide METSK) was cross-linked; predicted transmembrane domain 142-162; Stood in the assays as a subunit of the whole purified needle complex or of the ΔinvG substructure, not as an isolated protein; source: endogenous, S. typhimurium strains …
B4: InvG (natural protein)
chain: SEKIPVTGSGFVAKDDSLRTFFDAMALQLKEPVIVSKMAARKKITGNFEFHDPNALLEKLSLQLGLIWYFDGQAIYIYDASEMRNAVVSLRNVSLNEFNNFLKRSGLYNKNYPLRGDNRKGTFYVSGPPVYVDMVVNAATMMDKQNDGIELGRQKIGVMRLNNTFVGDRTYNLRDQKMVIPGIATAIERLLQGEEQPLGNIVSSEPPAMPAFSANGEKGKAANYAGGMSLQEALKQNAAAGNIKIVAYPDTNSLLVKGTAEQVHFIEMLVKALDVAKRHVELSLWIVDLNKSDLERLGTSWSGSITIGDKLGVSLNQSSISTLDGSRFIAAVNALEEKKQATVVSRPVLLTQENVPAIFDNNRTFYTKLIGERNVALEHVTYGTMIRVLPRFSADGQIEMSLDIEDGNDKTPQSDTTTSVDALPEVGRTLISTIARVPHGKSLLVGGYTRDANTDTVQSIPFLGKLPLIGSLFRYSSKNKSNVVRVFMIEPKEIVDPLTPDASESVNNILKQSGAWSGDDKLQKWVRVYLDRGQEAIK
notes: InvG, secretin of the SPI-1 needle complex (outer rings and neck), S. typhimurium; processed InvG starts at Ser-25; printed residue numbers include the signal peptide; Stood in the assays as a subunit of the purified needle complex; source: endogenous, S. typhimurium strain SB905 (w.t.) and SB906 complemented with plasmid-borne PrgH; purified within needle complexes

Data set [1] deals with the molecule itself. As to the kind of experiment: negative-stain electron microscopy, single particle analysis; purified needle complexes incubated in 10 mM sodium phosphate pH 10.4 (legend: pH 10.5), 0.5 M NaCl, 0.1% LDAO, 15 min at 37°C, sucrose gradient, then negative stain (PTA or NanoVan); no symmetry imposed, rotational cross-correlation.
Data set [2] deals with B2. Described as above. As to conditions: both partners purified.
The data set “PrgH” concerns the target B3. As to the kind of experiment: cross-linking; sucrose gradient purified whole needle complexes (about 1 mg/ml, w.t. strain SB905) on ice with 200 µM BS2G-d0/d4 for 30 or 60 min; single particles re-purified on sucrose gradients; tryptic digestion in solution, high-resolution mass spectrometry, xQuest score above 15. As to conditions: both partners purified.

In data set [3] the target is B4. As to the kind of experiment: negative-stain electron microscopy; purified needle complexes of the PrgH^Δ4 strain, without high pH treatment; negative stain. As to conditions: both partners purified.
Data set [4] has as its target B4. As to the kind of experiment: cross-linking; sucrose gradient purified whole needle complexes (about 1 mg/ml, w.t. strain SB905) on ice with 200 µM BS2G-d0/d4 for 30 or 60 min; single particles re-purified on sucrose gradients; tryptic digestion in solution, high-resolution mass spectrometry, xQuest score above 15. As to conditions: both partners purified.
Data set [5] deals with the molecule itself. As to the kind of experiment: cryo electron microscopy, single particle class averages; purified complexes from wild type and ΔinvG strains, vitrified; two-dimensional class averages and their density difference.

As usually defined, the stoichiometry N is a count of units in the complex or per binding partner. Regarding B1, the “stoichiometry N” value in data set [1] is 24. Besides, the binding result (in data set [2]; with PrgH) was “binds” each time. Consider B2, for which, in the data set with InvG [3], the binding result is “binds”. The “stoichiometry N” value in data set [1] is 24.

Consider B3, for which the binding result with InvG [4] is listed as “binds”. With B4, the binding result in data set [5] is “binds”.

The values are drawn from publication PMC2848554, “Topology and Organization of the Salmonella typhimurium Type III Secretion Needle Complex Components” (PLoS Pathogens, 2010).
